Results: paper PMC8540335

Legend:
[1] = target: 2NCp7 (NCp7 with 2 Zn2+) (HIV-1, UniProt P04591 378-432); assay: SPR; 2 Zn2+ per protein; 50 RU RNA immobilized; SPR (Biacore X100, SA chip): 10 mM HEPES pH 7.4, 150 mM NaCl, 0.005% Tween-20, 25 C; conditions: protein: recombinant; tags: 6xHis (pET28); label: 3'-biotin; hairpin
[2] = target: NCp7 (1 Zn2+ per protein, as purified) (HIV-1, UniProt P04591 378-432); assay: SPR; 1 Zn2+ per protein; 50 RU RNA immobilized; SPR (Biacore X100, SA chip): 10 mM HEPES pH 7.4, 150 mM NaCl, 0.005% Tween-20, 25 C; conditions: protein: recombinant; tags: 6xHis (pET28); label: 3'-biotin; hairpin

GGACUAGCGGAGGCUAGUCC (structured_RNA) [SL3-RNA] showed a Kd [1] of 0.00315 µM and a Kd [2] of 0.0214 µM.
